For experiment [1], the target named is T1, recombinant human PD-L1-His protein (Origincell Therapeutics Co., Ltd.) (human, UniProt Q9NZQ7 19-238, limits assumed).
T1 construct: not shown: His tag
Description: BLI (Octet RED384), antibody on AHC sensor, PD-L1-His in solution. How it is done: (§1) The antigen-antibody binding kinetics were analyzed by the biofilm interference (BLI) technology, using a molecular interaction analyzer (Octet RED384, purchased from Pall ForteBio Analytics Co., Ltd.) and using a PBS buffer containing 0.1% BSA and 0.02% Tween 20. […] The AHC sensor was regenerated by glycine pulses and then reused. The obtained results would be analyzed by Octet Data Analysis 9.0 software (Pall ForteBio Analytics Co., Ltd.) to give the KD, Kₒₙ (1/Ms) and Koff (1/s).
For orientation: Biolayer interferometry detects binding as a change in optical thickness at a sensor tip.

For experiment [2], the target named is T2, recombinant human CD137-His protein (Origincell Therapeutics Co., Ltd.) (human, UniProt Q07011 24-186, limits assumed).
T2 construct: also called Human 4-1BB-His; not shown: His tag
Description: BLI (Octet RED384), antibody on AHC sensor, CD137-His in solution. How it is done: as §1

Experiment [3] addresses T3, human PD-L1 on cells (CHO cells that stably expressed human PD-L1; MDA-MB-231 cells) (human, UniProt Q9NZQ7 19-290).
T3 construct: whole, on cells; Stably expressed on CHO cells; also called CHO cells expressing human PD-L1
The experiment in a line: flow cytometry on MDA-MB-231 cells (human PD-L1), anti-human IgG-Fc DyLight 650 detection. As for the experimental part:
Human breast cell strain MDA-MB-231 (Shanghai Chinese Academy of Sciences Cell Library) highly expresses the human PD-L1 molecule. […] After cell washing, Goat F(ab′)₂ Anti-Human IgG-Fc (DyLight 650) (ab98593, abcam) was added and incubated at 4° C. for 30 min. After cell washing, the fluorescence intensity was detected by a flow cytometer (Intellicyt iQue Screener).

The target of experiment [4] is T3, human PD-L1 on cells (CHO cells that …). Description: flow cytometry competition: biotin-labelled human PD-1-Fc at a subsaturated concentration on CHO cells stably expressing human PD-L1, antibody titrated, streptavidin R-PE detection. How it is done:
(§2) After cell washing, Streptavidin R-PE Conjugate (life technology, SA10041) was added and incubated (4° C., 30 min). After cell washing, the fluorescence intensity was detected by a flow cytometer (Intellicyt iQue Screener).

Experiment [5] has as its target T4, mouse PD-L1 on CHO cells that stably expressed mouse PD-L1 (mouse, UniProt Q9EP73 19-290).
T4 construct: whole, on cells; also called CHO cells expressing mouse PD-L1
Description: flow cytometry competition: biotin-labelled mouse PD-1-Fc at a subsaturated concentration on CHO cells stably expressing mouse PD-L1, antibody titrated, streptavidin R-PE detection. How it is done: as §2
Background: A flow cytometer gives signals particle by particle.

Experiment [6] concerns the target T5, recombinant human PD-L1-Fc protein (Origincell Therapeutics Co., Ltd.) (human, UniProt Q9NZQ7 19-238, limits assumed).
T5 construct: Labeled with biotin (EZ-Link Sulfo-NHS-LC-Biotin) for the BLI assays; unlabeled in the phage ELISA; also called Human PD-L1-Fc-Biotin; not shown: Fc part
Description: BLI (Octet RED384), biotinylated antigen on SA sensor, antibody in solution. How it is done: (§3) The recombinant human PD-L1-Fc protein and the recombinant mouse PD-L1-Fc were labeled with biotin (EZ-Link Sulfo-NHS-LC-Biotin, Pierce, 21327). The antigen-antibody binding kinetics were analyzed by the biofilm interference (BLI) technology, using a molecular interaction analyzer (Octet RED384, purchased from Pall ForteBio Analytics Co., Ltd.) and using a PBS buffer containing 0.1% BSA and 0.02% Tween 20. […] The obtained results would be analyzed by Octet Data Analysis 9.0 software (Pall ForteBio Analytics Co., Ltd.) to give the KD, Kₒₙ (1/Ms) and Koff (1/s).

The target in experiment [7] is T6, recombinant mouse PD-L1-Fc protein (M5251, ACROBiosystems Inc.) (mouse, UniProt Q9EP73 19-238).
T6 construct: Bought; Labeled with biotin for the BLI assays; unlabeled in the phage ELISA; also called Mouse PD-L1-Fc-Biotin; not shown: Fc part
T6 sequence (Q9EP73 19-238 limits assumed): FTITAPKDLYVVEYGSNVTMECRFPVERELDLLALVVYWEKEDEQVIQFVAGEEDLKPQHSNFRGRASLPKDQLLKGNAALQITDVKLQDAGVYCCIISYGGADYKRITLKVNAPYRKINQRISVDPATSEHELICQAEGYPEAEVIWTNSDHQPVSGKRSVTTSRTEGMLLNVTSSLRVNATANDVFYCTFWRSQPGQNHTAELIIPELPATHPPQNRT
Described as above. How it is done: as §3

In experiment [8] the target is T1, recombinant human PD-L1-His protein …. Description: BLI (Octet RED384), antibody on AHC sensor, PD-L1-His in solution. This is another data set of the same source.
For experiment [9], the target named is T3, human PD-L1 on cells (CHO cells that …). The experiment in a line: flow cytometry on CHO cells stably expressing human PD-L1, anti-human IgG-Fc DyLight 650 detection. As for the experimental part: The mixture was mixed well and incubated at 4° C. for 1 hr. After cell washing, Goat F(ab)₂ Anti-Human IgG-Fc (DyLight 650) (ab98593, Abcam) was added and incubated at 4° C. for 30 min. After cell washing, the fluorescence intensity was detected by a flow cytometer (Intellicyt iQue Screener).

Experiment [10] addresses T4, mouse PD-L1 on CHO cells that stably …. The experiment in a line: flow cytometry on CHO cells stably expressing mouse PD-L1, anti-human IgG-Fc DyLight 650 detection. As for the experimental part:
The mixture was mixed well and incubated at 4° C. for 1 hr. After cell washing, Goat F(ab′)₂ Anti-Human IgG-Fc (DyLight 650) (ab98593) was added and incubated at 4° C. for 30 min. After cell washing, the fluorescence intensity was detected by a flow cytometer (Intellicyt iQue Screener).

Experiment [11] addresses T3, human PD-L1 on cells (CHO cells that …). Description: flow cytometry competition: biotin-labelled human PD-1-Fc at a subsaturated concentration on CHO cells stably expressing human PD-L1, antibody titrated, streptavidin R-PE detection. How it is done: as §2
This is another data set of the same source.

The target of experiment [12] is T4, mouse PD-L1 on CHO cells that stably …. The experiment in a line: flow cytometry competition: biotin-labelled mouse PD-1-Fc at a subsaturated concentration on CHO cells stably expressing mouse PD-L1, antibody titrated, streptavidin R-PE detection. How it is done:
as §2
The source holds these as a separate data set.

Read-outs that look alike come from different tables or passages of the source.

T4 sequence (Q9EP73 19-290): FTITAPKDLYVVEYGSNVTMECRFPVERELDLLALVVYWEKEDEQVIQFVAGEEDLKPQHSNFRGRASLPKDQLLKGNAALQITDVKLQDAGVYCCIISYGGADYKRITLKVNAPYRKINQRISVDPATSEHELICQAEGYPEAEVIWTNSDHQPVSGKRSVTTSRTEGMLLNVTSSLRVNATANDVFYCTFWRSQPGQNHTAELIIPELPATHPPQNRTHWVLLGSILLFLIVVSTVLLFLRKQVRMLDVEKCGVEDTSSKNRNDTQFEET
T1 sequence (Q9NZQ7 19-238 limits assumed): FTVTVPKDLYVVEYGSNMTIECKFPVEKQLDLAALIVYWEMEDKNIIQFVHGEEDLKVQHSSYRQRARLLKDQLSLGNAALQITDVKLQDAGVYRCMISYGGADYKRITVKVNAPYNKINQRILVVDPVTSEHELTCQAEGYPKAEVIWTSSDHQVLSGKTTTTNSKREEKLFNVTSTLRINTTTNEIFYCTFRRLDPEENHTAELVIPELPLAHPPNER
T5 sequence (Q9NZQ7 19-238 limits assumed): as above
T3 sequence (Q9NZQ7 19-290): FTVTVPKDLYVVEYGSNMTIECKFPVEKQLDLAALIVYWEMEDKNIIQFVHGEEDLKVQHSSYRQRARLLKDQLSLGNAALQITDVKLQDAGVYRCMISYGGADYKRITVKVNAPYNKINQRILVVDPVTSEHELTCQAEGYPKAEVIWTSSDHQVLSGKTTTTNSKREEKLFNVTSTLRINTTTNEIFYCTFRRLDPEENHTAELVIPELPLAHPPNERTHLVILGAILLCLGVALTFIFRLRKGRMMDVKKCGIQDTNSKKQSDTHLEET

B1: anti-PD-L1/CD137 bispecific antibody YN-051 (bispecific antibody, human IgG1, lambda, N297A)
heavy: not shown
light: QSALTQPASVSGSPGQSITISCTGTVSEVGGYNEVSWYQQHPGKAPKLMIYGNSNRPSGVSNRFSGSKSGNTASLTISGLQAEDEADYYCQSYDSSLSGTVFGGGTKLTVLGQPKAAPSVTLFPPSSEELQANKATLVCLISDFYPGAVTVAWKADSSPVKAGVETTTPSKQSNNKYAASSYLSLTPEQWKSHRSYSCQVTHEGSTVEKTVAPTECS
notes: First polypeptide (built from the YN-035 heavy chain and the YN-006 heavy and light chain genes) and second polypeptide (= YN-035 light chain); SDS-PAGE: about 200 kDa non-reduced, about 75 and 25 kDa reduced
Turning to B1, in experiment [1], the Kd is 0.517 nM, the koff is 0.000275 s⁻¹ and the kon came out at 532000 M⁻¹ s⁻¹. In addition, in experiment [2], the Kd was determined as 1.64 nM, the off-rate constant (koff) was found to be 0.000147 s⁻¹ and the kon turned out to be 89900 M⁻¹ s⁻¹. In [3], the “EC50 (read off the curve)” value was approximately 1 nM. Further, the “IC50 (read off the curve)” value in [4] is approximately 2 nM. Besides, the “IC50 (read off the curve)” value in experiment [5] was approximately 5 nM.

B2: anti-PD-L1/CD137 bispecific antibody YN-007 (bispecific antibody)
heavy: not shown
light: QSALTQPASVSGSPGQSITISCTGTSSDVGGYNYVSWYQQHPGKAPKLMIYGNSNRPSGVSNRFSGSKSGNTASLTISGLQAEDEADYYCQSYDSSLSGSVFGGGTKLTVLGQPKAAPSVTLFPPSSEELQANKATLVCLISDFYPGAVTVAWKADSSPVKAGVETTTPSKQSNNKYAASSYLSLTPEQWKSHRSYSCQVTHEGSTVEKTVAPTECS
notes: First polypeptide (built from the YN-003 heavy chain and the YN-006 heavy and light chain genes) and second polypeptide (= YN-003 light chain); SDS-PAGE: about 200 kDa non-reduced, about 75 and 25 kDa reduced
Take B2: in experiment [6], the Kd stood at 0.525 nM, the koff worked out at 0.000592 s⁻¹ and the kon worked out at 1.13e+06 M⁻¹ s⁻¹. In addition, in experiment [7], the Kd stood at 1.34 nM, the koff was found to be 0.00109 s⁻¹ and the kon amounted to 810000 M⁻¹ s⁻¹.

B3: anti-PD-L1/CD137 bispecific antibody YN-052 (bispecific antibody, human IgG1, lambda, N297A)
heavy: not shown
light: QSALTQPASVSGSPGQSITISCTGTVSEVGGYNEVSWYQQHPGKAPKLMIYGNSNRPSGVSNRFSGSKSGNTASLTISGLQAEDEADYYCQSYDSSLSGTVFGGGTKLTVLGQPKAAPSVTLFPPSSEELQANKATLVCLISDFYPGAVTVAWKADSSPVKAGVETTTPSKQSNNKYAASSYLSLTPEQWKSHRSYSCQVTHEGSTVEKTVAPTECS
notes: First polypeptide (built from the YN-036 heavy chain and the YN-006 heavy and light chain genes) and second polypeptide (= YN-036 light chain); SDS-PAGE: about 200 kDa non-reduced, about 75 and 25 kDa reduced
Consider B3, for which the figures for the Kd in experiment [1] and in [2] were 0.572 nM and 2.08 nM, respectively. In addition, the values for the koff in experiment [1] and in [2] were 0.000257 s⁻¹ and 0.000174 s⁻¹, respectively. Also, the association rate constant (kon) worked out at 448000 M⁻¹ s⁻¹ in experiment [1] and 83700 M⁻¹ s⁻¹ in experiment [2]. The “EC50 (read off the curve)” value in [3] was approximately 2 nM. The “IC50 (read off the curve)” value is approximately 3 nM in experiment [4] and approximately 5 nM in experiment [5].

B4: PD-L1 antibody YN-039 (antibody, human IgG1, lambda, V domains shown)
VH: QVQLVQSGAEVKKPGSSVKVSCKASRGPFSTYAISWVRQAPGQGLEWMGRIIPILGIANYAQKFQGRVTITADKSTSTAYMELSSLRSEDTAVYYCARTMGEYSYGNYDYWGQGTLVTVSS
VL: QSALTQPASVSGSPGQSITISCTGTVSDVGGYNEVSWYQQHPGKAPKLMIYENSIRPSGVSHRFSGSKSGNTASLTISGLQAEDEADYYCQSYDSSLSGTVFGGGTKLTVLG
notes: full-length IgG1,lambda
For the molecule B4, in [8], the Kd worked out at 0.485 nM, the off-rate (koff) is 0.000173 s⁻¹ and the kon amounted to 356000 M⁻¹ s⁻¹. In addition, the “EC50 (read off the curve)” value in experiment [9] was 3 to 4 nM. In addition, the “EC50 (read off the curve)” value in experiment [10] was approximately 6 nM. Further, the “IC50 (read off the curve)” value in experiment [11] was approximately 3 nM. For the same molecule, the “IC50 (read off the curve)” value in experiment [12] is approximately 4 nM.

B5: PD-L1 antibody YN-038 (antibody, human IgG1, lambda, V domains shown)
VH: QVQLVQSGAEVKKPGSSVKVSCKASRGPFSTYAISWVRQAPGQGLEWMGRIIPILGIANYAQKFQGRVTITADKSTSTAYMELSSLRSEDTAVYYCARTMGEYSYGNYDYWGQGTLVTVSS
VL: QSALTQPASVSGSPGQSITISCTGTRSDVGGYNEVSWYQQHPGKAPKLMIYENSIRPSGVSHRFSGSKSGNTASLTISGLQAEDEADYYCQSYDSSLSGTVFGGGTKLTVLG
notes: full-length IgG1,lambda
As to B5, in experiment [8], the Kd is 0.447 nM, the koff was determined as 0.000156 s⁻¹ and the kon is 350000 M⁻¹ s⁻¹. For the same molecule, the “EC50 (read off the curve)” value in experiment [9] is 3 to 4 nM. Further, the “EC50 (read off the curve)” value in experiment [10] was approximately 6 nM. In experiment [11], the “IC50 (read off the curve)” value is approximately 3 nM. In addition, in experiment [12], the “IC50 (read off the curve)” value was approximately 4 nM.

B6: PD-L1 antibody YN-037 (antibody, human IgG1, lambda, V domains shown)
VH: QVQLVQSGAEVKKPGSSVKVSCKASRGPFSTYAISWVRQAPGQGLEWMGRIIPILGIANYAQKFQGRVTITADKSTSTAYMELSSLRSEDTAVYYCARTMGEYSYGNYDYWGQGTLVTVSS
VL: QSALTQPASVSGSPGQSITISCTGTSSSVGGYREVSWYQQHPGKAPKLMIYENSIRPSGVSHRFSGSKSGNTASLTISGLQAEDEADYYCQSYDSSLSGTVFGGGTKLTVLG
notes: full-length IgG1,lambda
In the case of B6, in experiment [8], the Kd came to 0.382 nM, the koff came to 0.000136 s⁻¹ and the kon came out at 355000 M⁻¹ s⁻¹. Besides, in experiment [9], the half-maximal effective concentration (EC50 (read off the curve)) was in the range of 3 to 4 nM. Further, the “EC50 (read off the curve)” value in [10] was approximately 6 nM. In experiment [11], the “IC50 (read off the curve)” value was approximately 3 nM. The “IC50 (read off the curve)” value in experiment [12] was approximately 4 nM.

As usually defined, the Kd is the free concentration of one partner at which half of the binding sites on the other are occupied at equilibrium, for simple one-to-one binding. By koff is commonly meant the rate constant with which the complex falls apart. One may read the kon as the rate constant with which the complex forms. The EC50 (read off the curve) is the concentration at which the effect is half-maximal.

For the origin of these results see US20210261677A1 (ORICELL THERAPEUTICS, published 2021).
